The record followed here is article PMC4902918, “Production in Pichia pastoris of complementary protein-based polymers with heterodimer-forming WW and PPxY domains” (Microbial Cell Factories, 2016).

No end group written: not given here. C4^P polymer block = not defined here; O‑glycan = not defined here

The target in test [1] is T1, C4^P-D^WW protein polymer (C4^P polymer with a C-terminal WW domain WWP1-1) (human). Description: ITC; MicroCal VP-ITC, 25 °C, 10 mM sodium phosphate pH 7; 200 uM C4^P-D^WW (1.4 mL) in the cell, 2.9 mM ligand in the syringe, 63 injections of 4 uL; triplicate, Kd values averaged. The following applies: both partners purified.
The target of test [2] is T1, C4^P-D^WW protein polymer (C4^P polymer …). Nature of the test: other fluorescence titration; steady-state tryptophan fluorescence (excitation 295 nm, emission 340 nm); 500 uL of 10 uM C4^P-D^WW in the cuvette, 500 uM ligand added stepwise up to ~24 uM; 10 mM sodium phosphate pH 7, RT; triplicate, fit on averaged data. The following applies: both partners purified.

T1 sequence (chain, as listed by the source): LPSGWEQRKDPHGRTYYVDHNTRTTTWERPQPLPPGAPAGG

B1: C4^P-D^PPxY* protein polymer (Ser12 to Ala mutant of the PPxY module, nonglycosylated) (other)
chain: {C4^P polymer block}-EYPPYPPPPYPAGPAGG
modifications: reading uncertain; also: nonglycosylated
Broadly, the Kd is the constant that tells how readily two partners part at equilibrium. Low values mean a tighter complex, high ones a looser complex. Broadly, the stoichiometry N is a count of units in the complex or per binding partner. On to B1, for which, in test [1], the affinity, expressed as Kd, was 9.2 µM and the “stoichiometry N” value was roughly 0.9. The molecule also registered a Kd in test [2] of 2700 nM.

B2: C4^P-D^PPxY protein polymer (C4^P polymer with a C-terminal PPxY proline-rich ligand), O-glycosylated (other)
chain: {C4^P polymer block}-EYPPYPPPPYPS(O‑glycan)GPAGG
modifications: reading uncertain; also: O-glycans heterogeneous, tentatively Man3 to Man7, mostly phosphorylated in diester linkage, minor fraction nonglycosylated
For B2, in test [1], the Kd is 9.3 µM and the “stoichiometry N” value is roughly 0.9. For the same molecule, binding in test [2] was characterised by a dissociation constant (Kd) of 2500 nM.
